The assay deals with TIP60, endogenous in C4-2 cells (human (endogenous in C4-2)) (UniProt Q92993). In words: co-IP; endogenous proteins, C4-2 lysates; TIP60 immunoprecipitated with anti-TIP60; cells +/- 10 nM MB for 24 h; also cells transfected with siCtrl or siING3 and treated with MB; blot for AR.

This is an account of results in article PMC5434536.

androgen receptor (AR), endogenous in C4-2 cells, sequence (P10275 whole entry): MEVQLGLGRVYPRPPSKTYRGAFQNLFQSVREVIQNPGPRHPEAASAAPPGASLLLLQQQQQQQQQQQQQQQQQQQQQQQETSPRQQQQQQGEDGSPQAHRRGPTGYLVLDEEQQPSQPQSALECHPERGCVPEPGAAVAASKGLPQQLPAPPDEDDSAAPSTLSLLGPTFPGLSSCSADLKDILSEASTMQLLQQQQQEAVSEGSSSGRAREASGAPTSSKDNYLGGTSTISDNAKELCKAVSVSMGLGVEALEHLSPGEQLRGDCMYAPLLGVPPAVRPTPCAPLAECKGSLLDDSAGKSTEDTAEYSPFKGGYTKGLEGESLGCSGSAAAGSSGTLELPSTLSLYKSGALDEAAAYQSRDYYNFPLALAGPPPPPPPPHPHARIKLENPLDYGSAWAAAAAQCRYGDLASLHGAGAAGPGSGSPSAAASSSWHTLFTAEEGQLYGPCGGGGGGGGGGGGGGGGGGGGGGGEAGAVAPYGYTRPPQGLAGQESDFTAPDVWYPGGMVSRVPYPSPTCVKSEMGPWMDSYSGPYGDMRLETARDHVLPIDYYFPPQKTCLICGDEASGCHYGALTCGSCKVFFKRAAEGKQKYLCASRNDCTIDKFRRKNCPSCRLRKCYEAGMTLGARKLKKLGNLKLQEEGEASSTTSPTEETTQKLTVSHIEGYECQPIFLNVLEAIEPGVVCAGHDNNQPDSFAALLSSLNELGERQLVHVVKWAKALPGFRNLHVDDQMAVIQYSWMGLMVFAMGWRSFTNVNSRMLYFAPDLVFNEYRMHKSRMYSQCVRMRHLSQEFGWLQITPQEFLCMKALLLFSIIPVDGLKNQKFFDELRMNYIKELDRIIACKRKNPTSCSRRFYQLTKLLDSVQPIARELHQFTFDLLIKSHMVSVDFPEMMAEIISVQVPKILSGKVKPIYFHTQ
TIP60, endogenous in C4-2 cells (human (endogenous in C4-2)), sequence (Q92993 whole entry): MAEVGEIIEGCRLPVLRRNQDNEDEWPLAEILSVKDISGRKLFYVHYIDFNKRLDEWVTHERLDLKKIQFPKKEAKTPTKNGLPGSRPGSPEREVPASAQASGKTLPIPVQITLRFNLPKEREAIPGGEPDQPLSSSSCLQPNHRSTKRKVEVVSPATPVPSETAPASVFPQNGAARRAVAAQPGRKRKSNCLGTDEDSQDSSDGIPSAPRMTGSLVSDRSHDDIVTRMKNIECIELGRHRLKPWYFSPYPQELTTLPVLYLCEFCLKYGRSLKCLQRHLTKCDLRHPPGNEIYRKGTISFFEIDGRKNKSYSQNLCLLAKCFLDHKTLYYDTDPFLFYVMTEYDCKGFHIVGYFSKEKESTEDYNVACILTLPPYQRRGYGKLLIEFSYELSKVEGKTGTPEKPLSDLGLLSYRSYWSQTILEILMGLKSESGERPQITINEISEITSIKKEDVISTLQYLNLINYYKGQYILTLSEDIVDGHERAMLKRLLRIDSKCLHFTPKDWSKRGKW

With “androgen receptor (AR), endogenous in C4-2 cells (from UniProt P10275 1-920)”, the fold reduction of the AR-TIP60 association with siING3 against siCtrl is 3 fold.
